Experiments:
[1] = molecular target: human CD3 on Jurkat cells (human) (UniProt P07766); assay: competitive binding on Jurkat cells, competitor at 1 nM, tracer 125I-UCHT1
[2] = molecular target: human CD3 on Jurkat cells (human) (UniProt P07766); assay: competitive binding on Jurkat cells, competitor at 100 nM, tracer 125I-UCHT1
[3] = molecular target: T1, monkey CD3 on HSC-F monkey T cells (cynomolgus monkey, UniProt Q95LI5 22-198); assay: competition with FN18-FITC on HSC-F cells, flow cytometry, replicate assays
T1 construct: whole, on cells; also called monkey CD3ε

[4] = molecular target: T1, monkey CD3 on HSC-F monkey T cells; assay: competition with FITC-labeled FN18 tracer (5x10^-9 M) for binding to HSC-F monkey T cells, flow cytometry, 4 C

T1 sequence (Q95LI5 22-198): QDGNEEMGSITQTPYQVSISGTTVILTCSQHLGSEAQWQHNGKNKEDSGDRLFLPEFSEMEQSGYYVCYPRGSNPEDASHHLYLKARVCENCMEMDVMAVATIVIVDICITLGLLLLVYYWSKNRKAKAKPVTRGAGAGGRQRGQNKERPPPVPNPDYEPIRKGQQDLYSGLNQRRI

Molecule	% of 125I-UCHT1 bound to Jurkat cells [1] [%]	% of 125I-UCHT1 bound to Jurkat cells [2] [%]	further results
UCHT1 (antibody)	80	0	–
scUCHT1 (from UniProt P01871 106-453) (Fc fusion)	80	0	–
biscFv(C207) (other) DFVMSQSPSSLAVSVGERVTMSCKSSQSLLYFSNRKNYLAWYQQKPGQSPKLLINWASTRESGVPDRFTGSGSRTDFTLTISSVKAEDLAVYFCQQFYSYPPTFGGGTKLEIKGGGGSGGGGSGGGGSQVQLQQSEAELARPGASVKMSCKASGYTFTDYTIHWLRQKPGQGLDWIGYFNPSSGSTEYNRKFKDRTILTADRSSTTVYMQLSSLTSEDSAVYYCARKGEKLLGNRYWYFDVWGAGTSVTVSSGGGGSGGGGSGGGGSDFVMSQSPSSLAVSVGERVTMSCKSSQSLLYFSNRKNYLAWYQQKPGQSPKLLINWASTRESGVPDRFTGSGSRTDFTLTISSVKAEDLAVYFCQQFYSYPPTFGGGTKLEIKGGGGSGGGGSGGGGSQVQLQQSEAELARPGASVKMSCKASGYTFTDYTIHWLRQKPGQGLDWIGYFNPSSGSTEYNRKFKDRTILTADRSSTTVYMQLSSLTSEDSAVYYCARKGEKLLGNRYWYFDVWGAGTSVTVSS	–	–	ratio of concentrations at equal displacement, biscFv(C207)/scFv(C207) [3]: 2.5 fold
Db(C207) (other, also called diabody of C207; diabody (C207)) DFVMSQSPSSLAVSVGERVTMSCKSSQSLLYFSNRKNYLAWYQQKPGQSPKLLINWASTRESGVPDRFTGSGSRTDFTLTISSVKAEDLAVYFCQQFYSYPPTFGGGTKLEIKGGGGSQVQLQQSEAELARPGASVKMSCKASGYTFTDYTIHWLRQKPGQGLDWIGYFNPSSGSTEYNRKFKDRTILTADRSSTTVYMQLSSLTSEDSAVYYCARKGEKLLGNRYWYFDVWGAGTSVTVSS	–	–	ratio of concentrations at equal displacement, Db(C207)/scFv(C207) [3]: 7 fold
scFv(C207) (scFv) scFv: DFVMSQSPSSLAVSVGERVTMSCKSSQSLLYFSNRKNYLAWYQQKPGQSPKLLINWASTRESGVPDRFTGSGSRTDFTLTISSVKAEDLAVYFCQQFYSYPPTFGGGTKLEIKGGGGSGGGGSGGGGSQVQLQQSEAELARPGASVKMSCKASGYTFTDYTIHWLRQKPGQGLDWIGYFNPSSGSTEYNRKFKDRTILTADRSSTTVYMQLSSLTSEDSAVYYCARKGEKLLGNRYWYFDVWGAGTSVTVSS	–	–	IC50 (read off the curve) [4]: ~2 nM

From US20110189209A1 (GOVERNMENT OF THE UNITED STATES OF AMERICA AS REPRESENTED …, published 2011)
